# Reference: US20140120095A1 (Boehringer Ingelheim, published 2014)
# Key:
# [1] = target: T1, recombinant human DLL4 (C-terminally His-tagged extracellular domain, R&D Systems) (human, UniProt Q9NR61 25-522, biotinylated in the competition ELISA); assay: SPR (Biacore), recombinant human DLL4
# T1 construct: also called rhDLL4; hDLL4
# [2] = target: T2, mouse DLL4 expressed on CHO cells (mouse, UniProt Q9JI71 27-686); assay: competition FMAT, labelled hNotch1-Fc on CHO-mDLL4 cells
# T2 construct: whole, on cells; also called mDLL4; CHO-mDLL4
# T2 sequence (Q9JI71 27-686): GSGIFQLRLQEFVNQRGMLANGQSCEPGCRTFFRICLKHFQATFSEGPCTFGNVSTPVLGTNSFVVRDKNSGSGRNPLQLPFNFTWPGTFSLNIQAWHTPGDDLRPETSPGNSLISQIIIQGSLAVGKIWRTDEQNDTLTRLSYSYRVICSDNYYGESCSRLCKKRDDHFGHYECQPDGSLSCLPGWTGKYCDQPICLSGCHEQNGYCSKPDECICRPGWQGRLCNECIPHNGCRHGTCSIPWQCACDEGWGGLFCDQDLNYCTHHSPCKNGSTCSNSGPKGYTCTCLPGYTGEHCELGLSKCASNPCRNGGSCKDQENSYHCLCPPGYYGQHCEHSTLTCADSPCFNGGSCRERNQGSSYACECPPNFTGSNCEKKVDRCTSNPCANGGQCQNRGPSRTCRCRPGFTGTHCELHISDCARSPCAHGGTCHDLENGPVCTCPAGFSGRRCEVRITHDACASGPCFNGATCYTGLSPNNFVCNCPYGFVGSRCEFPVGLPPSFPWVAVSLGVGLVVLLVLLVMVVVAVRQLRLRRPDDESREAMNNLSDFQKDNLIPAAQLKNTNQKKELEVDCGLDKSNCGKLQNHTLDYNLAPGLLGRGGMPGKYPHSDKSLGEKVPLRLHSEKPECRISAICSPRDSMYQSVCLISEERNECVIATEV
# [3] = target: T3, human DLL4 expressed on cells (CHO-hDLL4; HEK293-hDLL4) (human, UniProt Q9NR61 27-685); assay: FACS titration on human DLL4 expressing cells, detection anti-c-myc Alexa647 (Example 5.8, Example 7), MCF
# T3 construct: full length human DLL4 overexpressed on CHO cells (FMAT, FACS) or HEK293 cells (reporter assay)
Kd [1],koff [1],kon [1],IC50 [2],EC50 (read off the curve) [3],Binder
1 nM,0.00052 s⁻¹,550000 M⁻¹ s⁻¹,50.8 nM,–,"DLLBII136C07 (VHH, not shown: small tags and cut ends) VHH: EVQLVESGGGLVQPGGSLRLSCAASGFTFGSYDMSWVRRSPGKGPEWVSSINSGGGSTYYADYVKGRFTISRDNAKNTLYLQMNSLKPEDTAVYYCAADRYIWARQGEYWGAYEYDYWGQGTQVTVSS"
0.2 nM,7.9e-05 s⁻¹,340000 M⁻¹ s⁻¹,15.9 nM,–,"DLLBII129B05 (VHH, not shown: small tags and cut ends) VHH: EVQLVESGGGLVQAGGSLRLSCAASGRTFSSYAMAWYRQAPGKEREYVAAIRWSGGTAYYADSVQGRFTISRDNAKNTVYLQMNSLKPEDTAVYYCANRAPDTRLAPYEYDHWGQGTQVTVSS"
–,–,–,–,~10 nM,"DLLBII129E11 (VHH, not shown: small tags and cut ends) VHH: EVQLVESGGGLVQAGGSLRLSCAASGRTFSSYAMAWYRQAPGKEREYVAAIRWSGGTAYYADSVQGRFTISRDNAKNTVYLQMNSLKPEDTAVYYCANRAPDTRLRPYLYDYWGQGTQVTVSS"
